Drawing on patent US20200181198A1 (3M INNOVATIVE PROPERTIES, published 2020), this text covers binding result and Kd for 5 molecules.

One may read the Kd as the constant that tells how readily two partners part at equilibrium.

Ends that are not written are not given here.

Assay [1] deals with T1, Recombinant Human Epidermal Growth Factor (EGF) (human, UniProt P01133 971-1023).
T1 construct: Commercial reagent; also called EGF protein
Description: dot blot, peptide spotted on nitrocellulose, EGF in solution, anti-EGF-IgG-HRP detection. On the procedure:
SEQ ID NO: 1 (1 microliter of a 10 nM solution in PBS containing 3 wt. % DMSO) and SEQ ID NO: 2 (1 microliter of a 10 nM solution in PBS containing 3 wt. % DMSO) were individually spotted at separate sites on a nitrocellulose membrane (obtained from Thermo Fisher Scientific, Waltham, Mass.) and the membrane was dried in air for about 30 minutes. The membrane was then incubated in 25 mL of blocking buffer (3 wt. % BSA in PBS) for one hour at room temperature. The membrane was washed three times (15 minutes for each wash) with 15 mL portions of fresh PBST. The washed membrane was incubated with EGF protein [10 microliters of a 100 ng/mL solution in blocking buffer (3 wt. % BSA in PBS)] with gentle agitation for one hour. The membrane was again washed three times (15 minutes for each wash) with 15 mL portions of fresh PBST. The washed membrane was incubated with anti-EGF-IgG-HRP [1:5000 dilution in 10 mL of the blocking buffer (3 wt. % BSA in PBS)] for one hour with gentle agitation. Following the incubation, the membrane was washed three times (15 minutes for each wash) with 15 mL portions of fresh PBST. The washed membrane was incubated with 10 mL of the development solution for horseradish peroxidase (TMB-Blotting Substrate Solution, Pierce-Fisher Scientific, Rockford, Ill.) with gentle agitation. The color development was stopped by adding water.

Assay [2] deals with T2, Recombinant Human Tumor Necrosis Factor-alpha (TNF-alpha) (human, UniProt P01375 77-233).
T2 construct: Commercial reagent; also called TNFα
Description: SPR (Biacore 3000, CM5 chip), linker modified peptide immobilized, TNF-alpha as analyte, 25 C. As to the method:
(§1) The following Test Method A was used for determining the binding affinity (KD) of SEQ ID NO: 1 for EGF and TNF-[…] Binding experiments were performed using Biacore 3000 optical biosensors equipped with research-grade CM5 sensor chips (GE Healthcare Bio-Sciences Corporation). The reagents used for the amine-coupling steps [(1-ethyl-3-(3-dimethylaminopropyl)-carbodiimide (EDC); N-hydroxysuccinimide (NHS); and ethanolamine hydrochloride-NaOH (1 M, pH 8.5)] were obtained from GE Healthcare Bio-Sciences Corporation. In order to efficiently immobilize the peptide on the sensor chips, a modified version of SEQ ID NO:1 was prepared by SPPS in which a “CK” amino acid linker sequence was added to the N-terminal end of the SEQ ID NO: 1 peptide (i.e. linker modified version of SEQ ID NO: 1 for immobilization being […]). A standard coupling protocol was employed to immobilize the linker modified version of SEQ ID NO: 1 via the lysine residues. The immobilization was performed at 25° C. using HBS-EP as the running buffer. The CM-dextran surfaces of the sensor chip flow cells were activated by a seven minute injection (20 microliters/minute) of freshly prepared 1:1 50 mM NHS: 200 mM EDC. A solution of linker modified SEQ ID NO: 1 in acetic acid (20 mM, pH 5.5) was injected to target 200 response units (RU). […]
For orientation: In SPR one partner is held on a chip, and binding of the other changes the refractive index at the surface.

For assay [3], the target named is T1, Recombinant Human Epidermal Growth …. Description: SPR (Biacore 3000, CM5 chip), linker modified peptide immobilized by amine coupling, EGF analyte 62.5-1000 nM, 25 C, 1:1 Langmuir global fit. On the procedure: as §1
Assay [4] shares this target. Nature of the assay: SPR (Biacore 3000, CM5 chip), linker modified peptide immobilized, EGF as analyte, Test Method A; EGF as analyte. As to the method: as §1
Assay [5] concerns the target T2, Recombinant Human Tumor Necrosis …. Description: SPR (Biacore 3000, CM5 chip), linker modified peptide immobilized, TNF-alpha as analyte, Test Method A; TNF-alpha as analyte. As to the method: as §1
The target in assay [6] is T1, Recombinant Human Epidermal Growth …. Nature of the assay: dot blot, EGF spotted on nitrocellulose, biotinylated peptide in solution, Streptavidin-HRP detection. On the procedure:
EGF (1 microliter of a 10 nM solution in PBS was spotted a nitrocellulose membrane (obtained from Thermo Fisher Scientific) and the membrane was dried in air for about 30 minutes. The membrane was then incubated in 15 mL of blocking buffer (3 wt. % BSA in PBS) for one hour at room temperature. The membrane was washed three times (15 minutes for each wash) with 15 mL portions of fresh PBST. The washed membrane was incubated with Biotinylated SEQ ID NO: 1 [10 mL of a 10 ng/mL solution in blocking buffer (3 wt. % BSA in PBS)] with gentle agitation for one hour. The membrane was again washed three times (15 minutes for each wash) with 15 mL portions of fresh PBST. The washed membrane was incubated with Streptavidin-HRP [1:5000 dilution in 10 mL of the blocking buffer (3 wt. % BSA in PBS)] for 30 minutes with gentle agitation. Following the incubation, the membrane was washed three times (15 minutes for each wash) with 15 mL portions of fresh PBST. The washed membrane was incubated with 10 mL of the development solution for horseradish peroxidase (TMB-Blotting Substrate Solution, Pierce-Fisher Scientific) with gentle agitation. The color development was stopped by adding water. A dark spot developed at the application site on the membrane indicating affinity of SEQ ID NO: 1 for EGF.

T1 sequence (P01133 971-1023 limits assumed): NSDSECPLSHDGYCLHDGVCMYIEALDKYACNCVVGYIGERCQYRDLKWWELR
T2 sequence (P01375 77-233 limits assumed): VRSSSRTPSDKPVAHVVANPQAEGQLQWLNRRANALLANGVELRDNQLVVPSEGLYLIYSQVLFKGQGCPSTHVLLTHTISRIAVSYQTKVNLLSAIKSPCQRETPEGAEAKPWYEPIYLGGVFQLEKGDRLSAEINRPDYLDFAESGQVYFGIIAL

B1: SEQ ID NO: 2 peptide (KNVNWWSHWWHATD) (peptide)
peptide: Ac-KNVNWWSHWWHATD-NH2
notes: Chemically synthesized (SPPS, GenScript)
For the molecule B1, the binding result in assay [1] is given as “binds”.

B2: linker modified version of SEQ ID NO: 1 (CKYVSPGMKNVNWWSHWWHATD) (peptide)
peptide: CKYVSPGMKNVNWWSHWWHATD
modifications: not fully specified (N-terminus, C-terminus); also: immobilized on CM5 chip by amine coupling via lysine residues
Take B2: the binding result in assay [2] was “no binding”. In addition, the dissociation constant Kd in assay [3] stood at 0.706 µM.

B3: SEQ ID NO: 1 peptide (YVSPGMKNVNWWSHWWHATD) (peptide)
peptide: Ac-YVSPGMKNVNWWSHWWHATD-NH2
notes: as for B1
For B3, the binding result in assay [1] is “binds”.

B4: linker modified version of SEQ ID NO: 2 (CKNVNWWSHWWHATD) (peptide)
peptide: CKNVNWWSHWWHATD
modifications: not fully specified (N-terminus, C-terminus); also: immobilized on CM5 chip by amine coupling or conjugated to iodoacetyl magnetic beads via linker cysteine
Consider B4, for which the Kd worked out at 2.6 µM in assay [4] and 2450 µM in assay [5].

B5: Biotinylated SEQ ID NO: 1 (peptide)
peptide: YVSPGMKNVNWWSHWWHATD-NH2
modifications: not fully specified (N-terminus); also: biotinylated, site not given here
As to B5, in assay [6], the binding result was “binds”.
